Experimental findings from article PMC3075949 are described below.

Test [1] has as its target Rh gH/gL-YFPC (rhesus lymphocryptovirus (Rh-LCV)). Put plainly: split reporter.
Test [2] has as its target EBV gH/gL-YFPC (Epstein-Barr virus (EBV)) (UniProt P03231). Put plainly: split reporter.

Take “EBV gB-YFPN (from UniProt P03188 22-857) (natural protein)”: the % YFP cells of cells stained for gB and gH/gL in test [1] is 68%.
Turning to “EBV/Rh (456-628) gB-YFPN (from UniProt P03188 22-450; P03188 624-857)”, the figures for the % YFP cells of cells stained for gB and gH/gL in test [2] and in test [1] were 93% and 72%, respectively.
As to “EBV/Rh (456-807) gB-YFPN (from UniProt P03188 22-450; P03188 801-857)”, the % YFP cells of cells stained for gB and gH/gL in test [1] is 79%.
On the same count and under the same terms, next, “EBV/Rh (628-807) gB-YFPN (from UniProt P03188 22-622; P03188 801-857)”: 59%.
